The DeepSol protein solubility set

Experiment: soluble on expression in E. coli; label from the status in PepcDB or PDB records

Sequence	soluble on expression in E. coli
MSLPISLTDFFPIQGGMATRMVIEGANFGTDLSQIKVFFNQKEASILNVKNSIIYLLVPKLPGNDCIVTVKVGNQEARFTRNFQYIENYSVTTIAGQPGTNLFVEGTLAAAQFGPVQHLAIDDENNLFITERNGSDGKGTCSVLNEESGTVTFLFKASDNLNVPTVNAQTQNVYIPLDGGYTFYELNPVNQWIAKSRLVLHPSKEQQEAGMDDFEINWKHSLAFSRYDNMIYTRSYGGDLIKVDPETRVGQKIGNFFPNTDSFIVAHPTQPEILYIAYAAKHVIYTYNIETGEHKLFAGAFGQSGWNDGIATDAEFNSPRQMSLDMEGNIYIADSGNHCIRMIDKNGIVTTPIGQPGEAGYADGSPDMALLNDPRGVAVNSEGDVYIADLGNRCIRKLTLQLEHHHHHH	soluble
MSLPNSEDLRKPDAQREVGRHYPVTLDNQLVSTPEEEVIAPPSVMLRWETYQVANGESAALLFQRAGLSSRVLYELTSSNSDINNQLSKLMPKDELKFGFDKDNQLVQLKRTISPYETFVVTRSDSGFTSEFDKKEVTFQLNYAEAKITSNFWNAGVTAGLSANQIIELANMFGWDIDFALDIREGDQFKLLYQEKIVEGSVIGRGNIIAATFINQGSTFTAILDDNTGNYYDQNGRAMKKAFLRSPLDFRRVSSNFNPRRLHPVTGQIKAHRGTDYVAPVGTPIWAAGDGVVEKSSYNQFNGNYVYIRHSNTYITKYLHLQRRLVKTGERVKQGQTIGTLGGTGRVTGPHLHYEFLVNGIHKNPRTVELPQAQSLTGKAKETFIANAKQRMEKLERYSQLLYANQEGHHHHHH	soluble
MSLPQKSKVMHIARTLTGSTTQDEGQERQEAKTQDCQEDKRPETLVKGNGNNMECSRLREKQGVLIANRDGGTR	not soluble
MSLQEPFSQLESEIQVLKSHIANISGLSVPKNVLKNADGSTLKSLSEASLKVIEKTIRITAHAVNLKLRIETDIANLKNQIKLLTETKEQQDALSKALEASSTLVKLEDRHERLTERIQALEKKIDEAIRQLSYKESMPLSKEEKLWIREVNGINALLNNAGEDSLALKIEDLKVQVTALSQNEHSANEHLTDAEIQKRQNSIILAKLSLWLQNDLEKLDEVKQSVTDCIRRLREGHHHHHH	soluble
MSLQFIGAGLGRTGTLSLKLALERLGVGRCYHAMELAANLRQDLPQWESAIDGRPDWDRIFAGYAATTDYPGCCFWMELAARYPHAKVILTVRDPDAWFDSVSATIFSGSNNLPSLFGSRGQRLSQFLRRDLGARLGERAFMTDYFRRWNQAVITHIPAPRLLVLDTDTESSWERLCAFLALPVPAFPYPRVHMRGASVPQRPLPTEPALIEQRMRTYLDRLAEEAFAPPTAPLEHHHHHH	soluble
MSLQIAANKAVSIDYTLTNDAGDVIDSSAGGAPLVYLHGAGNIIVGLEKALEGKNVGDELSVAIEPEDAYGEYSAELVATLTREMFEGVDELEVGMQFHASAPDGGMQIVTIRDIDGDDVTVDGNHPLAGQRLNFKVKVVDVREANAEEIAHGHIHGEGGHHHEGGSHHHHHH	soluble
MSLQLADAQADLPYIHGFSAAEQARLVRQARFSEAMVYRDVDFSGVQKLLEVGCGVGAQTEILLRRFPDVGITGLDFSQRQLAVARQRLQGSPYHDRATLLHMDAEDLDFPPASFDGAFLCWILEHVHSPERVLAEVRRVLKPGARLYATEAMNATFFLAPYSANLQQYWLAFNDHQLSVGGDPFVGAKLGNILMRLGFRHVETKVKTWHLDSREPHRRQQVLDYWAELLLSAADQLIEAGRVDAELVDSMTRELRLLRSNPELVFFYSFMQASAVVEGHHHHHH	soluble
MSLQNADRLSREYVAGVNFLLSNQQDKAVDLFLEMLKEDSSAFEAHLTLGNLFRSRGEVERAIRIHQSLMESASLTFDQRLLATQQLGRDYMSAGLYDRAENMFAQLVNEKDFQENAFQSLLTIYQSTSDWKKAIDIAEKLVKSGKHDLREKIAHFYCELALQEMSGDDLDEAIGYLNKAVQADKNCARVSIMLGRLFMARQEYNKAADALKSVLEQDKQLVSEVLPILQECYQHQNQIDEWENFLKRCVEEDCGATAELLLADIIEQQKGHEVAQTYINHRLERHPTMRLFYRLMDYHLAEAEEGRAKESIILLRDMVGEQIRTKPNYRCHKCGFTSHSLYWHCPSCRSWDSIKPIRGLDGQEGHHHHHH	not soluble
MSLQNFQTEEISALIQNYDFDKALYKLKSHYSDMTFKEADSLLLANNIVYSENNETQQQQYLANLDTLLRDINNNHSEIASFTIYKNDMILVNTHNLYNHGFYKINSSLENIYFNLSEITDNDDQFAKYFKLLNLFFSTISRDAILSTSDKFNDIAIRKHEHSTNISTAFSQIFNECLKSKFEKNNVKTLFAELATYDIIEILNELIENHLKDTSYHLDNFVEAFTGNVMNSSIIIENLYHQIVVQNKLLQLVLLSFLFLDFDTNIFGDKIETLLDINYKQTFFMSFYEFDSKLTQSSMSMHTLQYPHGVQIFSSSELAGYLEFEIATLYSTPIVDSRLYIAFMQEYVLNWREKMEPPQKAINFFKYILEPLYRRNEIDEEFLLAMSMFNCGRFEQAYEFFTMNDYMLHLANKLPPFLKNVQQNSLWYELLKTFTESSTNAHYYLQLSLLFKTYNRLDLALKCVSKSVEYSMKHPSVEEGHHHHHH	soluble
MSLQPALGVLVASSQPLDQYVVRHPDFFADASPEHARTAPDQPLILFDHIRCAAFELPFIASEPFGPIDPLVFLEVLAESEVIHQEGDRWEWIADSYPATAVSLRSVADGNFVVVDKSDGKQQIIAEVDYSAAALTLYEGAIHMVQSRPYQVERLDWAGRKAYVTRTHVDYYTDSIDYTKLKVLDRFDGGVAGRGDSHHGEVHVVRRVSGYKKIRYYTHENIGYGPVNLPDQELHTTAVWWQLPQATLGKAFEGHHHHHH	soluble
MSLQPVAKTEQPEGGILYDFGKETFGFITLKNLSGKGKIDLYYGESPEEAKDKAYCETLDKLLLEPGQITDLAIRSTSPLHHSDNEYTLENSKAFRYVYITHEPEVQIGEVSMQYEYLPEEYRGNFRCNDEELNCIWEVGAYTMHLTTREFFIDGIKRDRWVWSGDAIQSYLMNYYLFFDSESVKRTIWLLRGKDPVTSHSNTIMDYTFYWFLSVYDYYMYSGDRHFVNQLYPRMQTMMDYVLGRTNKNGMVEGMSGDWVFVDWADGYLDKKGELSFEQVLFCRSLETMALCADLVGDKDGQQKYEKLASALKAKLEPTFWNNQKQAFVHNCVDGRQSDAVTRYANMFSVFFDYLNADKQQAIKQSVLLNDEILKITTPYMRFYELEALCALGEQETVMKEMKAYWGGMLKAGATSFWEKYNPEESGTQHLAMYGRPYGKSLCHAWGASPIYLLGKYYLGVKPTKEGYKEFAVSPVLGGLKWMEGTVPTPNGDIHVYMDNKTIKVKATEGKGYLTIQSREGHHHHHH	not soluble
MSLQQPLAYRMRPRHLDEVVGQQHLVGPGKIIRRMVEAKMLSSMILYGPPGTGKTSIASAIAGSTNYAFRMLNAATDTKKDLQIVAEEAKMSGTVILLLDEIHRLDKTKQDFLLPHLENGRIIMIGATTENPYITINPAIRSRTQIFEVKPLTETDIQQAIQEALTDSTRGLGDYPVHLEEKALQHLTRATNGDLRSALNGLELAVKSTPKNEQGEIKITLPIIEECVQRKALTHVKDGDAHYDVISAFQKSIRGSDVDAALHYLGRLVEAGDLPIICRRLMVIAYEDIGLGNPAAAARTVTAVQAAEKLGFPEARIPLASVVIDLCLSPKSNSAVTAIDAALADIRQGSVGDVPDHLRDAHYAGAKELNRGIGYQYPHNFENGWVNQQYLPDKLKEARYYEPIDIGKYEQALHQQLKRIQEWKEGHHHHHH	soluble
MSLQRVQIMGAGALGSLVGALIQLAGYDVIFVARGKQLEALKKGLRVSGLKNAELKVYCTSQPEDADITFVTVKAYDTETVAKKLAEVDAGVVCSLQNGVGNEEILAKYCRKVLGGVTTYGANLKDYGHVVYAGEGYTYVGEMDGRVSGEAEMVAEVLRDAGMRAEAVNDIEFRIWAKAVVNAAINPITAICRVKNGEVVRNPHLWEVARAVADEGRQVMARMGYEFDAASEVRKVAEMTAENRSSMLQDLERGKRTEVEFINGAIVKKGEEFGIDCAVNRTLLNLVRGVESGEGHHHHHH	soluble
MSLQTKILIIDGDKDNCQKLKGFLEEKGISIDLAYNCEEAIGKIFSNKYDLIFLEIILSDGDGWTLCKKIRNVTTCPIVYMTYINEDQSILNALNSGGDDYLIKPLNLEILYAKVKAILRRMNSYVNNNENNTKLEEYNRTSGVIKLEDKIIKLTPTENKLLNFFIENPEKTLTTKEIYEHVWMNEYLEDNYSVVVAVNGLRKKIEKDYKNPQKIITIRGAGYYFNKEGHHHHHH	soluble
